Source: article PMC3850785

Columns and labels:
Experiment in all cases: purified protein
Conditions in all cases: 5 mM GSH, 0.10 M Tris-HCl pH 7.7, 37 °C, 1 h
purified protein [1] = substrate: C1O[C@H]1[C@H]1CO1
purified protein [2] = substrate: C1O[C@@H]1[C@H]1CO1
purified protein [3] = substrate: C1O[C@@H]1[C@@H]1CO1

B1: human GST P1-1 (Homo sapiens) (protein)
chain: PPYTVVYFPVRGRCAALRMLLADQGQSWKEEVVTVETWQEGSLKASCLYGQLPKFQDGDLTLYQSNTILRHLGRTLGLYGKDQQEAALVDMVNDGVEDLRCKYISLIYTNYEAGKDDYVKALPGQLKPFETLLSQNQGGKTFIVGDQISFADYNLLDLLLIHEVLAPGCLDAFPLLSAYVGRLSARPKLKAFLASPEYVNLPINGNGKQ
Protein B1 has a Km (purified protein [1]) of 910 ± 10 µM, a kcat (purified protein [1]) of 0.0442 s⁻¹ and a kcat/Km (purified protein [1]) of 48.3 M⁻¹ s⁻¹. The Km (purified protein [2]) was 590 ± 150 µM, the kcat (purified protein [2]) was 0.0265 s⁻¹ and the kcat/Km (purified protein [2]) was 46.7 M⁻¹ s⁻¹. It also gave a Km (purified protein [3]) of 740 ± 330 µM, a kcat (purified protein [3]) of 0.044 s⁻¹ and a kcat/Km (purified protein [3]) of 65 M⁻¹ s⁻¹.

B2: human GST A1-1 (Homo sapiens) (protein)
chain: AEKPKLHYFNARGRMESTRWLLAAAGVEFEEKFIKSAEDLDKLRNDGYLMFQQVPMVEIDGMKLVQTRAILNYIASKYNLYGKDIKERALIDMYIEGIADLGEMILLLPVCPPEEKDAKLALIKEKIKNRYFPAFEKVLKSHGQDYLVGNKLSRADIHLVELLYYVEELDSSLISSFPLLKALKTRISNLPTVKKFLQPGSPRKPPMDEKSLEEARKIFRF
For B2, the Km (purified protein [1]) was 320 ± 10 µM, the kcat (purified protein [1]) was 0.0218 s⁻¹ and the kcat/Km (purified protein [1]) was 68.3 M⁻¹ s⁻¹. The Km (purified protein [2]) was 540 ± 30 µM, the kcat (purified protein [2]) was 0.0342 s⁻¹ and the kcat/Km (purified protein [2]) was 63.3 M⁻¹ s⁻¹. For the same protein, the Km (purified protein [3]) was 300 ± 50 µM, the kcat (purified protein [3]) was 0.0228 s⁻¹ and the kcat/Km (purified protein [3]) was 78.3 M⁻¹ s⁻¹.

B3: rat GST 5-5 (Rattus norvegicus) (protein)
chain: VLELYLDLLSQPCRAIYIFAKKNNIPFQMHTVELRKGEHLSDAFAQVNPMKKVPAMKDGGFTLCESVAILLYLAHKYKVPDHWYPQDLQARARVDEYLAWQHTTLRRSCLRTLWHKVMFPVFLGEQIRPEMLAATLADLDVNVQVLEDQFLQDKDFLVGPHISLADVVAITELMHPVGGGCPVFEGRPRLAAWYRRVEAAVGKDLFLEAHEVILKVRDCPPADPVIKQKLMPRVLTMIQ
For B3, the Km (purified protein [1]) was 800 ± 60 µM, the kcat (purified protein [1]) was 0.0573 s⁻¹ and the kcat/Km (purified protein [1]) was 71.7 M⁻¹ s⁻¹. The Km (purified protein [2]) was 830 ± 150 µM, the kcat (purified protein [2]) was 0.0308 s⁻¹ and the kcat/Km (purified protein [2]) was 38.3 M⁻¹ s⁻¹. It also gave a Km (purified protein [3]) of 770 ± 20 µM, a kcat (purified protein [3]) of 0.0638 s⁻¹ and a kcat/Km (purified protein [3]) of 83.3 M⁻¹ s⁻¹.

B4: human GST M1-1 (Homo sapiens) (protein)
chain: PMILGYWDIRGLAHAIRLLLEYTDSSYEEKKYTMGDAPDYDRSQWLNEKFKLGLDFPNLPYLIDGAHKITQSNAILCYIARKHNLCGETEEEKIRVDILENQTMDNHMQLGMICYNPEFEKLKPKYLEELPEKLKLYSEFLGKRPWFAGNKITFVDFLVYDVLDLHRIFEPKCLDAFPNLKDFISRFEGLEKISAYMKSSRFLPRPVFSKMAVWGNK
For B4, the Km (purified protein [1]) was 810 ± 50 µM, the kcat (purified protein [1]) was 0.074 s⁻¹ and the kcat/Km (purified protein [1]) was 91.7 M⁻¹ s⁻¹. For the same protein, the Km (purified protein [2]) was 920 ± 330 µM, the kcat (purified protein [2]) was 0.0497 s⁻¹ and the kcat/Km (purified protein [2]) was 56.7 M⁻¹ s⁻¹. The Km (purified protein [3]) was 730 ± 60 µM.

B5: human GST A3-3 (Homo sapiens) (protein)
chain: AGKPKLHYFNGRGRMEPIRWLLAAAGVEFEEKFIGSAEDLGKLRNDGSLMFQQVPMVEIDGMKLVQTRAILNYIASKYNLYGKDIKERALIDMYTEGMADLNEMILLLPLCRPEEKDAKIALIKEKTKSRYFPAFEKVLQSHGQDYLVGNKLSRADISLVELLYYVEELDSSLISNFPLLKALKTRISNLPTVKKFLQPGSPRKPPADAKALEEARKIFRF
B5 showed a Km (purified protein [1]) of 510 ± 80 µM, a kcat (purified protein [1]) of 0.028 s⁻¹ and a kcat/Km (purified protein [1]) of 55 M⁻¹ s⁻¹. The Km (purified protein [2]) was 750 ± 120 µM, the kcat (purified protein [2]) was 0.0302 s⁻¹ and the kcat/Km (purified protein [2]) was 40 M⁻¹ s⁻¹. The Km (purified protein [3]) was 480 ± 330 µM, the kcat (purified protein [3]) was 0.0253 s⁻¹ and the kcat/Km (purified protein [3]) was 66.7 M⁻¹ s⁻¹.

B6: human GST T1-1 (Homo sapiens) (protein)
chain: GLELYLDLLSQPCRAVYIFAKKNDIPFELRIVDLIKGQHLSDAFAQVNPLKKVPALKDGDFTLTESVAILLYLTRKYKVPDYWYPQDLQARARVDEYLAWQHTTLRRSCLRALWHKVMFPVFLGEPVSPQTLAATLAELDVTLQLLEDKFLQNKAFLTGPHISLADLVAITELMHPVGAGCQVFEGRPKLATWRQRVEAAVGEDLFQEAHEVILKAKDFPPADPTIKQKLMPWVLAMIR
With B6 the Km (purified protein [1]) was 930 ± 10 µM, the kcat (purified protein [1]) was 0.0617 s⁻¹ and the kcat/Km (purified protein [1]) was 66.7 M⁻¹ s⁻¹. The Km (purified protein [2]) was 370 ± 10 µM, the kcat (purified protein [2]) was 0.0403 s⁻¹ and the kcat/Km (purified protein [2]) was 108 M⁻¹ s⁻¹. The Km (purified protein [3]) was 790 ± 30 µM, the kcat (purified protein [3]) was 0.0618 s⁻¹ and the kcat/Km (purified protein [3]) was 78.3 M⁻¹ s⁻¹.
